In patent publication US20220340678A1 (MURAL ONCOLOGY, published 2022):
Numbering of substitutions follows the chain as printed. One block for each binder: values may come before it.

Assays:
[1] = molecular target: T1, histidine-tagged human uPAR (Sino#10925-H08H) (human, UniProt Q03405 23-303); experiment: BLI (Octet), antibody on anti-human Fc sensor, uPAR from 50 nM;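 also: antibodies captured at 10 µg/mL on anti-human Fc biosensors, with uPAR as analyte in a twofold dilution series from 50 nM downward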
T1 construct: also called uPAR-His

[2] = molecular target: IL-2/IL-15 receptor on primary mouse splenocytes (mouse); experiment: cell-based or functional assay
[3] = molecular target: T2, Recombinant mouse uPAR-Fc (R&D Systems, Cat. No. 531-PA-100) (mouse, UniProt P35456 24-297, limits assumed); experiment: SPR (Biacore), mouse uPAR-Fc captured on anti-human antibody chip
T2 construct: not shown: Fc of the bought fusion (captured with the human antibody capture kit); not described
T2 sequence (looked up): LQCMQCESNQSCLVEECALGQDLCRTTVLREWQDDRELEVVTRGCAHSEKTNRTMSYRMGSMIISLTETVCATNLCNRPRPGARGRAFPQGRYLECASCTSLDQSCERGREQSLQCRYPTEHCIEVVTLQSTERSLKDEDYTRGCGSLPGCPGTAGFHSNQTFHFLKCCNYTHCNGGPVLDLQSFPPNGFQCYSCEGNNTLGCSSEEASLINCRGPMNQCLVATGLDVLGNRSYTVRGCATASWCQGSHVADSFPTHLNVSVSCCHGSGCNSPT

B1: M8-H3/L2B10 (antibody)
heavy: not shown
light: DIQMTQSPSSLSASVGDTVTITCRTSENIYSNLAWYQQKPGKSPQLLVYAATNLADGVPSRFSGSGSGTDYTLTISSLQPEDFGTYYCQHFWGTPWTFGGGTKVEIKTVAAPSVFIFPPSDEQLKSGTASVVCLLNNFYPREAKVQWKVDNALQSGNSQESVTEQDSKDSTYSLSSTLTLSKADYEKHKVYACEVTHQGLSSPVTKSFNRGEC
notes: also called humanized M8
Kd [1]: 2.35 nM
koff [1]: 0.000477 s⁻¹
kon [1]: 203000 M⁻¹ s⁻¹

B4: Mouse cpIL-2:IL-2Ra (other)
chain: SSKSFQLEDAENFISNIRVTVVKLKGSDNTFECQFDDESATVVDFLRRWIAFCQSIISTSPQGGSSSTQQQQQHLEQLLMDLQELLSRMENYRNLKLPRMLTFKFYLPKQATELKDLQCLEDELGPLRHVLDLTQGSGGGSELCLYDPPEVPNATFKALSYKNGTILNCECKRGFRRLKELVYMRCLGNSWSSNCQCTSNSHDKSRKQVTAQLEHQKEQQTTTDMQKPTQSMHQENLTGHCREPPPWKHEDSKRIYHFVEGQSVHYECIPGYKALQRGPAISICKMKCGKTGWTQPQLTCVD
pSTAT5 EC50, mouse NK cells [2]: 19 nM
pSTAT5 EC50, mouse Tregs [2]: 22 nM
pSTAT5 EC50, mouse memory CD8 T cells [2]: 23 nM

B6: M1-H3/L4 (antibody, V domains shown)
VH: EVQLQQSGAEVKKPGATVKLSCTASGFNIKDEYINWVKQRPGQGLEWIGWIDPENGDTEYASKFQGRATITADTSTDTAYLELSSLRSEDTAVYYCTGGNYVGWFPYWGQGTLVTVSS
VL: QIVLTQSPATLSASPGERVTMSCSASSSVSYMHWYQQKPGTSPRRWLYDTSKLASGVPARFSGSGSGTDYTLTISSLEPEDFATYYCQQWSSNPPYTFGQGTKLEIKT
notes: also called humanized M1
Kd [1]: 1.3 nM
koff [1]: 0.000893 s⁻¹
kon [1]: 686000 M⁻¹ s⁻¹

B9: Mouse uPA-ATF:Mouse cpIL-2:IL-2Ra:His6 (other)
chain: GSVLGAPDESNCGCQNGGVCVSYKYFSRIRRCSCPRKFQGEHCEIDASKTCYHGNGDSYRGKANTDTKGRPCLAWNAPAVLQKPYNAHRPDAISLGLGKHNYCRNPDNQKRPWCYVQIGLRQFVQECMVHDCGGSGGSKSFQLEDAENFISNIRVTVVKLKGSDNTFECQFDDESATVVDFLRRWIAFCQSIISTSPQGGSSSTQQQQQHLEQLLMDLQELLSRMENYRNLKLPRMLTFKFYLPKQATELKDLQCLEDELGPLRHVLDLTQGSGGGSELCLYDPPEVPNATFKALSYKNGTILNCECKRGFRRLKELVYMRCLGNSWSSNCQCTSNSHDKSRKQVTAQLEHQKEQQTTTDMQKPTQSMHQENLTGHCREPPPWKHEDSKRIYHFVEGQSVHYECIPGYKALQRGPAISICKMKCGKTGWTQPQLTCVDHHHHHH
pSTAT5 EC50, mouse NK cells [2]: 35 nM
pSTAT5 EC50, mouse Tregs [2]: 22 nM
pSTAT5 EC50, mouse memory CD8 T cells [2]: 38 nM
Kd [3]: 0.14 nM
koff [3]: 0.0002 s⁻¹
kon [3]: 1.4e+06 M⁻¹ s⁻¹

B10: M43-Chimeric (antibody, V domains shown)
VH: QVQLQQSGAELARPGASVNLSCKASGYTFTSYGISWVKQRTGQGLEWIGEIYPRSGNTYYNEKFKGKATLTADKSSRTAYMELRSLTSEDSAVYFCAGKDYGSTYADYWGQGTTLTVSS
VL: QIVLTQSPAIMSASPGEKVTMTCSASSSVSSRYLHWYQQKSGASPKLWIYGTSNLASGVPARFSGSGSGTSYSLTINSVEAEDAATYYCQQYHSDPLTFGAGTKLELK
Kd [1]: 15.1 nM
koff [1]: 0.00606 s⁻¹
kon [1]: 402000 M⁻¹ s⁻¹

B11: M43-H1bm5/L4 (antibody, V domains shown)
VH: B10 VH with Q5V, L11V, R13K, S21N, K38R, A68V, A72T, S76T, S91T, F95Y
VL: QIVLTQSPATLSASPGERVTMTCSASSSVSSRYLHWYQQKSGASPRLWIYGTSNLASGVPARFSGSGPGTSYTLTISSVEPEDAATYYCQQYHSDPLTFGQGTKLELKT
notes: also called humanized M43
Kd [1]: 15.9 nM
koff [1]: 0.00658 s⁻¹
kon [1]: 415000 M⁻¹ s⁻¹

Other lines, results leading:

Kd [1]: 1.74 nM
koff [1]: 0.000427 s⁻¹
kon [1]: 246000 M⁻¹ s⁻¹
B2: M8-H3/L2B2 (antibody, V domains shown)
VH: QIQLVQSGSELKKPGASVKISCKASGTTFTDYGMNWVKQSPGKGLKWMGWINTNTGEPTYAEDFKGRFVFSLDTSVSTAYLQISSLKAEDTATYFCAHYSFDYWGQGTLLTVSS
VL: DIQMTQSPSSLSASVGDTVTITCRTSENIYSNLAWYQQKPGKSPQLLVYAATNLADGVPSRFSGSGSGTQYTLKISSLQPEDFATYYCQHFWGTPWTFGGGTKVEIKT
notes: also called humanized M8

Kd [1]: 1.65 nM
koff [1]: 0.000351 s⁻¹
kon [1]: 213000 M⁻¹ s⁻¹
B3: M8-H3/L2B5 (antibody)
heavy: not shown
light: B1 light with T18R
notes: also called humanized M8

Kd [1]: 1.11 nM
koff [1]: 0.000701 s⁻¹
kon [1]: 629000 M⁻¹ s⁻¹
B5: M1-Chimeric (antibody, V domains shown)
VH: EVQLQQSGAELVRPGASVKLSCTASGFNIKDEYINWVKQRPEQGLEWIGWIDPENGDTEYASKFQGKATITADTSSNTAYLQLSSLTSEDTAVYYCTGGNYVGWFPYWGQGTLVTVSA
VL: QIVLTQSPAIMSASPGEKVTMTCSASSSVSYMHWYQQKSGTSPKRWLYDTSKLASGVPARFSGSGSGTSYSLTISSMEAEDAATYYCQQWSSNPPYTFGGGTKLEIK

Kd [1]: 1.64 nM
koff [1]: 0.00111 s⁻¹
kon [1]: 677000 M⁻¹ s⁻¹
B7: M1-H3/L1 (antibody, V domains shown)
VH: B6 VH
VL: B6 VL with Q1E, A13L, V19A, M21L, L47I, Y70F, T84V
notes: also called humanized M1

Kd [1]: 1.48 nM
koff [1]: 0.000986 s⁻¹
kon [1]: 665000 M⁻¹ s⁻¹
B8: M1-H1/L4 (antibody, V domains shown)
VH: B6 VH with Q5V, L20I, Q43K, A68V
VL: B6 VL
notes: also called humanized M1

Kd [1]: 14.7 nM
koff [1]: 0.00666 s⁻¹
kon [1]: 454000 M⁻¹ s⁻¹
B12: M43-H4bm5/L4 (antibody, V domains shown)
VH: B10 VH with L11V, R13K, S21N, K38R, S76T, S91T
VL: B11 VL
notes: also called humanized M43

Kd [1]: 1.79 nM
koff [1]: 0.00049 s⁻¹
kon [1]: 273000 M⁻¹ s⁻¹
B13: M8-Chimeric (antibody, V domains shown)
VH: QIQLVQSGPELKKPGETVKISCKASGNTFTDYGMNWVKQSPGKGLKWMGWINTNTGEPTYADDFKGRFAFSLETSASTAYLQINNLKNEDMATYFCAHYSFDYWGQGTTLTVSS
VL: DIQMTQSPASLSVSVGQTVTITCRTSENIYSNLAWYQQKPGKSPQLLVYAATNLADGVPSRFSGSGSGTQYSLKINSLQSEDFGSYYCQHFWGTPWTFGGGTKLEIK
